Data reported in US20180360972A1, “THERAPEUTIC COMPOUNDS” (REGENTS OF THE UNIVERSITY OF MINNESOTA, priority 2017, published 2018).

Molecular target: mMC4R-NanoLuc and mMC4R-HaloTag homodimer (mouse) (UniProt P56450)
Experiment: cell-based or functional assay

Sequence of mMC4R-NanoLuc and mMC4R-HaloTag homodimer (mouse) (P56450 whole entry, chain 1 of 2): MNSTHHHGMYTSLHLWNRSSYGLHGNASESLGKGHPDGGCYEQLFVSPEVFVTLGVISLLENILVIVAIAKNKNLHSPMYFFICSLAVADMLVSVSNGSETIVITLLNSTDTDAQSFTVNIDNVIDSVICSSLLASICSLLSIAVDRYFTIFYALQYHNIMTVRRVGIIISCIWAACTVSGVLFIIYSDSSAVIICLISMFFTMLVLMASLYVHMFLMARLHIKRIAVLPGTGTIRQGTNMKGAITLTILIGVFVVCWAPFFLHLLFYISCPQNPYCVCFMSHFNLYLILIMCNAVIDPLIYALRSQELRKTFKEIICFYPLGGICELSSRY
Sequence of mMC4R-NanoLuc and mMC4R-HaloTag homodimer (mouse) (P56450 whole entry, chain 2 of 2): as the sequence (P56450 whole entry, chain 1 of 2) above

reduction in BRET signal at 10 µM compared to basal signal: 15%
Substance: α-MSH (from UniProt P01189 138-150) (ligand)
